Measurements taken from PMC6232973.

Molecular target: CC1-CC2-SUN fragment of mouse SUN2 (SUN2 residues 410-731), wild type (mouse)
Assay: SEC

Work on “CC1-CC2-SUN fragment of mouse SUN2 (SUN2 residues 410-731), wild type (domain or fragment)” yielded a stoichiometry N of 3.
